# Data from patent US20240400715A1 (VIBRANT PHARMA, published 2024).
# Substitutions are numbered along the chain they refer to.
# B1: 104 (CEA-Knob+Fab-Hole) (bispecific antibody, human IgG4 S228P, kappa, F234A L235A)
# chain: EVQLVESGGGFVQAGESLTLSCTSSTLTFTPYRMAWYRQAPGKQRDLVADISSGDGRTTNYADFAKGRFTISRDNIKNTVFLRMTNLKPEDTAVYYCNTFVSFVGIARSWGQGTQVTVSSESKYGPPCPPCPAPEAAGGPSVFLFPPKPKDTLMISRTPEVTCVVVDVSQEDPEVQFNWYVDGVEVHNAKTKPREEQFNSTYRVVSVLTVLHQDWLNGKEYKCKVSNKGLPSSIEKTISKAKGQPREPQVYTLPPCQEEMTKNQVSLWCLVKGFYPSDIAVEWESNGQPENNYKTTPPVLDSDGSFFLYSRLTVDKSRWQEGNVFSCSVMHEALHNHYTQKSLSLSL
# heavy: EVKLLESGGGLVQPKGSLKLSCAASGFTFNTYAMNWVRQAPGKGLEWVARIRSKYNNYATYYADSVKDRFTISRDDSQSILYLQMNNLKTEDTAMYYCVRHGNFGNSYVSWFAYWGQGTLVTVSSASTKGPSVFPLAPCSRSTSESTAALGCLVKDYFPEPVTVSWNSGALTSGVHTFPAVLQSSGLYSLSSVVTVPSSSLGTKTYTCNVDHKPSNTKVDKRVESKYGPPCPPCPAPEAAGGPSVFLFPPKPKDTLMISRTPEVTCVVVDVSQEDPEVQFNWYVDGVEVHNAKTKPREEQFNSTYRVVSVLTVLHQDWLNGKEYKCKVSNKGLPSSIEKTISKAKGQPREPQVCTLPPSQEEMTKNQVSLSCAVKGFYPSDIAVEWESNGQPENNYKTTPPVLDSDGSFFLVSRLTVDKSRWQEGNVFSCSVMHEALHNRFTQKSLSLSL
# light: QAVVTQESALTTSPGETVTLTCRSSTGAVTTSNYANWVQEKPDHLFTGLIGGTNKRAPGVPARFSGSLIGDKAALTITGAQTEDEAIYFCALWYSNLWVFGGGTKVEIKRTVAAPSVFIFPPSDEQLKSGTASVVCLLNNFYPREAKVQWKVDNALQSGNSQESVTEQDSKDSTYSLSSTLTLSKADYEKHKVYACEVTHQGLSSPVTKSFNRGEC
# notes: TA1 Fab, C17 VHH, IgG4 Fc KIH
# B2: 107 (CEA-Knob-Fab-+Hole) (bispecific antibody, human IgG4 S228P, kappa, F234A L235A)
# heavy: EVQLVESGGGFVQAGESLTLSCTSSTLTFTPYRMAWYRQAPGKQRDLVADISSGDGRTTNYADFAKGRFTISRDNIKNTVFLRMTNLKPEDTAVYYCNTFVSFVGIARSWGQGTQVTVSSESKYGPPCPPCPAPEAAGGPSVFLFPPKPKDTLMISRTPEVTCVVVDVSQEDPEVQFNWYVDGVEVHNAKTKPREEQFNSTYRVVSVLTVLHQDWLNGKEYKCKVSNKGLPSSIEKTISKAKGQPREPQVYTLPPCQEEMTKNQVSLWCLVKGFYPSDIAVEWESNGQPENNYKTTPPVLDSDGSFFLYSRLTVDKSRWQEGNVFSCSVMHEALHNHYTQKSLSLSLGGGGSGGGGEVKLLESGGGLVQPKGSLKLSCAASGFTFNTYAMNWVRQAPGKGLEWVARIRSKYNNYATYYADSVKDRFTISRDDSQSILYLQMNNLKTEDTAMYYCVRHGNFGNSYVSWFAYWGQGTLVTVSSASTKGPSVFPLAPCSRSTSESTAALGCLVKDYFPEPVTVSWNSGALTSGVHTFPAVLQSSGLYSLSSVVTVPSSSLGTKTYTCNVDHKPSNTKVDKRV
# chain: ESKYGPPCPPCPAPEAAGGPSVFLFPPKPKDTLMISRTPEVTCVVVDVSQEDPEVQFNWYVDGVEVHNAKTKPREEQFNSTYRVVSVLTVLHQDWLNGKEYKCKVSNKGLPSSIEKTISKAKGQPREPQVCTLPPSQEEMTKNQVSLSCAVKGFYPSDIAVEWESNGQPENNYKTTPPVLDSDGSFFLVSRLTVDKSRWQEGNVFSCSVMHEALHNRFTQKSLSLSL
# light: B1 light
# notes: TA1 Fab, C17 VHH, IgG4 Fc KIH
# B3: 106 (Knob+Fab-Hole-CEA) (bispecific antibody, human IgG4 S228P, kappa, F234A L235A)
# chain: B2 chain with C131Y, S136C, S148W, A150L, V189Y, R217H, F218Y
# heavy: EVKLLESGGGLVQPKGSLKLSCAASGFTFNTYAMNWVRQAPGKGLEWVARIRSKYNNYATYYADSVKDRFTISRDDSQSILYLQMNNLKTEDTAMYYCVRHGNFGNSYVSWFAYWGQGTLVTVSSASTKGPSVFPLAPCSRSTSESTAALGCLVKDYFPEPVTVSWNSGALTSGVHTFPAVLQSSGLYSLSSVVTVPSSSLGTKTYTCNVDHKPSNTKVDKRVESKYGPPCPPCPAPEAAGGPSVFLFPPKPKDTLMISRTPEVTCVVVDVSQEDPEVQFNWYVDGVEVHNAKTKPREEQFNSTYRVVSVLTVLHQDWLNGKEYKCKVSNKGLPSSIEKTISKAKGQPREPQVCTLPPSQEEMTKNQVSLSCAVKGFYPSDIAVEWESNGQPENNYKTTPPVLDSDGSFFLVSRLTVDKSRWQEGNVFSCSVMHEALHNRFTQKSLSLSLGGGGSGGGGSEVQLVESGGGFVQAGESLTLSCTSSTLTFTPYRMAWYRQAPGKQRDLVADISSGDGRTTNYADFAKGRFTISRDNIKNTVFLRMTNLKPEDTAVYYCNTFVSFVGIARSWGQGTQVTVSS
# light: B1 light
# notes: TA1 Fab, C17 VHH, IgG4 Fc KIH
# B4: 105 (Knob-CEA+Fab-Hole) (bispecific antibody, human IgG4 S228P, kappa, F234A L235A)
# chain: ESKYGPPCPPCPAPEAAGGPSVFLFPPKPKDTLMISRTPEVTCVVVDVSQEDPEVQFNWYVDGVEVHNAKTKPREEQFNSTYRVVSVLTVLHQDWLNGKEYKCKVSNKGLPSSIEKTISKAKGQPREPQVYTLPPCQEEMTKNQVSLWCLVKGFYPSDIAVEWESNGQPENNYKTTPPVLDSDGSFFLYSRLTVDKSRWQEGNVFSCSVMHEALHNHYTQKSLSLSLGGGGSGGGGSEVQLVESGGGFVQAGESLTLSCTSSTLTFTPYRMAWYRQAPGKQRDLVADISSGDGRTTNYADFAKGRFTISRDNIKNTVFLRMTNLKPEDTAVYYCNTFVSFVGIARSWGQGTQVTVSS
# heavy: B1 heavy
# light: B1 light
# notes: TA1 Fab, C17 VHH, IgG4 Fc KIH
# B5: 108 (Knob-Fab+CEA-Hole) (bispecific antibody, human IgG4 S228P, kappa, F234A L235A)
# heavy: ESKYGPPCPPCPAPEAAGGPSVFLFPPKPKDTLMISRTPEVTCVVVDVSQEDPEVQFNWYVDGVEVHNAKTKPREEQFNSTYRVVSVLTVLHQDWLNGKEYKCKVSNKGLPSSIEKTISKAKGQPREPQVYTLPPCQEEMTKNQVSLWCLVKGFYPSDIAVEWESNGQPENNYKTTPPVLDSDGSFFLYSRLTVDKSRWQEGNVFSCSVMHEALHNHYTQKSLSLSLGGGGSGGGGSEVKLLESGGGLVQPKGSLKLSCAASGFTFNTYAMNWVRQAPGKGLEWVARIRSKYNNYATYYADSVKDRFTISRDDSQSILYLQMNNLKTEDTAMYYCVRHGNFGNSYVSWFAYWGQGTLVTVSSASTKGPSVFPLAPCSRSTSESTAALGCLVKDYFPEPVTVSWNSGALTSGVHTFPAVLQSSGLYSLSSVVTVPSSSLGTKTYTCNVDHKPSNTKVDKRV
# chain: B1 chain with Y251C, C256S, W268S, L270A, Y309V, H337R, Y338F
# light: B1 light
# notes: TA1 Fab, C17 VHH, IgG4 Fc KIH
# B6: 109 (Knob-Fab+Hole-CEA) (bispecific antibody, human IgG4 S228P, kappa, F234A L235A)
# heavy: B5 heavy
# chain: B4 chain with Y131C, C136S, W148S, L150A, Y189V, H217R, Y218F
# light: B1 light
# notes: TA1 Fab, C17 VHH, IgG4 Fc KIH
# Molecular target: T1, human CD3ε/δ (ACRO systems, CDD-H52W1) (human, UniProt P07766 23-126; P04234 22-105)
# T1 construct: bought recombinant heterodimer; also called human CD3 epsilon/delta; Human CD3ε/CD3δ
# Assay: serum-stability ELISA, Day 10 vs Day 0
# Description: (§1) The samples to be tested were centrifuged at 4° C. at 12000 rpm for 30 minutes to remove the precipitate. 200 μl of each sample to be tested (0.5 mg/ml) was collected in a 1.5 ml Eppendorf tube. An equal volume of human serum (GEMINI, H2OYOOK) was added, mixed thoroughly, and the mixture was incubated in a 37° C. constant temperature CO₂ incubator. For a total of 10 days, 40 μl samples was aspirated every day and stored at −20° C.
# (§2) Enzyme-linked immunosorbent assay (ELISA) was used to test the bispecific antibodies' binding to human CEA and human CD3 epsilon/delta antigen. The steps are as follows: the antigen human CD3ε/δ (ACRO systems, CDD-H52W1) and the recombinant tumor antigen human CEA (CEACAM-5/CD66e, ACRO systems, CE5-H5226) were diluted to 1 μg/ml with PBS, and then added to the 96-well plate at 100 μl per well. The wells were coated overnight at 4° C. After washing 3 times with 0.05% PBST, 200 μl 5% skimmed milk powder was added to each well and incubated at 37° C. for 2 h. After washing 3 times with 0.05% PBST, 100 μl primary antibody sample (10 μg/ml) was added to each well, and incubated at 37° C. for 2 h. After washing 3 times with 0.05% PBST, 100 μl (1:6000) diluted secondary antibody goat anti-human Fc-HRP (sigma, A2170) was added to each well, incubated at room temperature for 1 h. After washing 8 times with 0.05% PBST, 50 μl TMB color developing solution was added to each well, and incubated at room temperature for 10-15 min. 50 μl 1 mM HCl was added to each well to stop the color development. 450 nm Absorbance (OD) was read.
# (§3) The binding of antibodies to antigen was calculated according to the following formula: Binding (%)=[(ODdayn−ODb)/(ODday0−ODb)]×100%. ODdayn: experimental well (the protein was stored in the serum for n days); ODday0: control well (the protein was not stored in the serum); ODb: blank well (no primary antibody added).
row,Binding %,Binder
1,107%,B1
2,102%,B2
3,106%,B3
4,99.2%,B4
5,66.7%,B5
6,62.1%,B6

# Molecular target: T1, human CD3ε/δ (ACRO systems, CDD-H52W1)
# Assay: serum-stability ELISA, Day 7 vs Day 0
# Description: as §1, §2, §3
row,Binding %,Binder
1,103%,B1
2,125%,B2
3,118%,B3
4,101%,B4
5,98.8%,B5
6,87.6%,B6

# Molecular target: T1, human CD3ε/δ (ACRO systems, CDD-H52W1)
# Assay: serum-stability ELISA, Day 0 (reference)
# Description: as §1, §2, §3
row,Binding %,Binder
1,100%,B1
2,100%,B2
3,100%,B3
4,100%,B4
5,100%,B5
6,100%,B6

# Molecular target: T1, human CD3ε/δ (ACRO systems, CDD-H52W1)
# Assay: serum-stability ELISA, Day 5 vs Day 0
# Description: as §1, §2, §3
row,Binding %,Binder
1,104%,B1
2,122%,B2
3,116%,B3
4,107%,B4
5,96.1%,B5
6,88%,B6

# Molecular target: T1, human CD3ε/δ (ACRO systems, CDD-H52W1)
# Assay: serum-stability ELISA, Day 6 vs Day 0
# Description: as §1, §2, §3
row,Binding %,Binder
1,104%,B1
2,123%,B2
3,122%,B3
4,104%,B4
5,98.4%,B5
6,85.7%,B6

# Molecular target: T1, human CD3ε/δ (ACRO systems, CDD-H52W1)
# Assay: serum-stability ELISA, Day 2 vs Day 0
# Description: as §1, §2, §3
row,Binding %,Binder
1,110%,B1
2,123%,B2
3,115%,B3
4,106%,B4
5,98%,B5
6,88.5%,B6

# Molecular target: T1, human CD3ε/δ (ACRO systems, CDD-H52W1)
# Assay: serum-stability ELISA, Day 9 vs Day 0
# Description: as §1, §2, §3
row,Binding %,Binder
1,108%,B1
2,118%,B2
3,112%,B3
4,105%,B4
5,98.5%,B5
6,83.3%,B6

# Molecular target: T1, human CD3ε/δ (ACRO systems, CDD-H52W1)
# Assay: serum-stability ELISA, Day 1 vs Day 0
# Description: as §1, §2, §3
row,Binding %,Binder
1,107%,B1
2,118%,B2
3,111%,B3
4,103%,B4
5,93%,B5
6,97.5%,B6
